T1: cynomolgus monkey PVRIG (Novoprotein, Cat NO. C09B) (cynomolgus monkey, UniProt A0A2K5WVV8 41-171)
T1 construct: Bought reagent; also called cynomolgus monkey PVRIG protein
T1 sequence: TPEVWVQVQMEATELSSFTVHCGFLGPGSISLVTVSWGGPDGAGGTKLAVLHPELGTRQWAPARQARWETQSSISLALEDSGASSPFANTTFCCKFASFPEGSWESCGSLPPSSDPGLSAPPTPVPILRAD

T2: cynomolgus monkey PVRIG on FlpinCHO-cyno PVRIG cells (cynomolgus monkey, UniProt A0A2K5WVV8 41-322)
T2 construct: whole, on cells
T2 sequence: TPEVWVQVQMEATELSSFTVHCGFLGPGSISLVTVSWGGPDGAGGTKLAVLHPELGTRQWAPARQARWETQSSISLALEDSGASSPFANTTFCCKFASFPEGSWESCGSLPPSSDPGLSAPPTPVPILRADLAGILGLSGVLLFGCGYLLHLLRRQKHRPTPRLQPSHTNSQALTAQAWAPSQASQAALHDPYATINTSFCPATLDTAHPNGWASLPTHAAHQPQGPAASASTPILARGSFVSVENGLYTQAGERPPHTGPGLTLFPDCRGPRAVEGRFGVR

T3: human PVRIG on FlpinCHO-PVRIG cells (human, UniProt Q6DKI7 41-326)
T3 construct: whole, on cells
T3 sequence (looked up): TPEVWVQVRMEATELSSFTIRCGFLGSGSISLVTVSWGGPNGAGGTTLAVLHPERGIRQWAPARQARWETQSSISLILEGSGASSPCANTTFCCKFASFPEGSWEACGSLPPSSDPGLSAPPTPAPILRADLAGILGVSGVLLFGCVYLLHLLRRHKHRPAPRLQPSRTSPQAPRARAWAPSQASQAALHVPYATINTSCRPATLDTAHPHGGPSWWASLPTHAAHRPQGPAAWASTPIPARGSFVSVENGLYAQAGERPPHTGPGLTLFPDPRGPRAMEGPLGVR

T4: human PVRIG-his (AcroBiosystems, Cat NO. PVG-H52H4) (human, UniProt Q6DKI7 41-171, limits assumed)
T4 construct: Bought reagent; also called human PVRIG protein
T4 sequence (looked up): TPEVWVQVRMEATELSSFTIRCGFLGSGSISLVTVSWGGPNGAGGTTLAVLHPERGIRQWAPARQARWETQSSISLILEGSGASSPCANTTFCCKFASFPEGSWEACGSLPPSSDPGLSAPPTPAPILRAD


Tests used:
[1] = target: T1, cynomolgus monkey PVRIG (Novoprotein, …); assay: ELISA, coated cynomolgus monkey PVRIG
Procedure: (§1) The ELISA plate was pre-coated with 100 μL/well of 0.5 μg/mL human PVRIG-his (AcroBiosystems, Cat NO. PVG-H52H4) or cynomolgus monkey PVRIG (Novoprotein, Cat NO. C09B). […] A HRP substrate, TMB (Thermo, Cat NO. 34029) was added into wells after washing the plate again for color development. After adding a termination solution to terminate the reaction, the absorbance value was read by a microplate reader (MD i3×). An antibody binding curve was drawn with concentration of antibodies as the abscissa and the corresponding OD value as the ordinate. The EC50 value was calculated by using a Four Parameter Logistic Fit (GraphPadPrism9). The smaller the EC50 value, the stronger the ability of the antibodies binds to human or cynomolgus monkey PVRIG. The positive control antibodies are COM701-hIgG1 (Patent No.:US20180244774A1), COM701-hIgG4 (patent No.: US20180244774A1) and SRF813-hIgG1 (Patent No.:US20200040081A1); and the negative control antibodies are anti-HA HcAb-hIgG1 (Chengdu NB Biolab, Cat NO. NBR022), anti-CD38 HcAb-hIgG1 (in-house) and anti-Fluorescein-hIgG1 (in house).

[2] = target: T2, cynomolgus monkey PVRIG on …; assay: FACS, FlpinCHO-cyno PVRIG cells; AUC of MFI curve relative to COM701-hIgG1
Procedure: (§2) The Ham's F12 (Gibico, 21127-022) complete medium containing 10% FBS was then added to terminate the digestion and acquire cell suspension. After counting with a cell counter (Beckman Coulter, Vi-CELL), an appropriate amount of cell suspension was centrifuged at 350×g to remove the supernatant, washed twice with PBS, stained with Zombie violet (Biolegend, 423114) and incubated at room temperature for 20 minutes. After incubation, the cells were added with staining buffer (2% FBS+PBS) to stop staining, centrifuged at 350×g to remove the supernatant, washed twice and resuspended with staining buffer to a density of 2×10⁶ cells/mL. The cells were plated into a 96-well plate (50 μL of cell suspension per well) for further use. The antibodies were diluted from the highest concentration of 46 nM (two-fold concentration) with staining buffer by 3.3-fold serial dilution. The diluted antibodies were added to the well containing 50 μL of cell suspension. The plate was placed on a microplate shaker at 400 rpm for 1 minute to fully mix the antibodies and cells, and then incubated at 4° C. for 30 minutes. After the incubation, the cells were washed twice with staining buffer (200 μL per well) and centrifuged at 350×g for 5 minutes to discard the supernatant. The PE goat anti-human IgG Fc antibody (ebioscience, 12-4998-82) was diluted 250 times with staining buffer, added into the washed wells (100 μL per well), mixed well, and stained at 4° C. for 30 minutes. After staining, the cells were washed twice with staining buffer, finally resuspended with 200 μL staining buffer and analyzed by flow cytometry (BD, Canto II). The stronger the signal, the stronger the ability of the antibodies binds to PVRIG. An antibody binding curve was drawn with concentration of antibodies as the abscissa and the corresponding Mean Fluorescence Intensity (MFI) as the ordinate. The AUC value of the curve was calculated by using a Four Parameter Logistic Fit (GraphPadPrism9). The stronger the AUC value, the stronger the ability of the antibodies binds to FlpinCHO-PVRIG and FlpinCHO-cyno PVRIG. […] The binding activity of the antibodies was normalized to the positive control COM701-hIgG1 and SRF813-hIgG1.

[3] = target: T3, human PVRIG on FlpinCHO-PVRIG cells; assay: FACS, FlpinCHO-PVRIG cells; AUC of MFI curve relative to SRF813-hIgG1
Procedure: as §2

[4] = target: T3, human PVRIG on FlpinCHO-PVRIG cells; assay: FACS, FlpinCHO-PVRIG cells; AUC of MFI curve relative to COM701-hIgG1
Procedure: as §2

[5] = target: T2, cynomolgus monkey PVRIG on …; assay: FACS, FlpinCHO-cyno PVRIG cells; AUC of MFI curve relative to SRF813-hIgG1
Procedure: as §2

[6] = target: T4, human PVRIG-his (AcroBiosystems, Cat …); assay: ELISA, coated human PVRIG-his
Procedure: as §1

Row | Binder | EC50 [1] [pM] | % AUC to COM701-hIgG1 [2] [%] | % AUC to SRF813-hIgG1 [3] [%] | % AUC to COM701-hIgG1 [4] [%] | % AUC to SRF813-hIgG1 [5] [%] | EC50 [6] [pM]
1 | PVRIG-A60 (Fc fusion, Alpaca VHH joined to human IgG1 Fc (VHH-hinge-CH2-CH3); not shown: human IgG1 hinge-CH2-CH3) QVQLVESGGGLVQSGGSLRLSCAASGRTRSMYVMGWFRQAPGKEREFVGRIKWSGDTTYTSYADFVKGRFTLYGNQARNTVYLQMNSLKPEDAAVYYCNLRRLDGVNYWGKGTLVTVSS | 34.3 | 63.4 | 68.6 | 63.3 | 82.9 | 55.7
2 | PVRIG-A117 (Fc fusion, Alpaca VHH joined to human IgG1 Fc (VHH-hinge-CH2-CH3); not shown: human IgG1 hinge-CH2-CH3) EVQVVESGGGLVQAGGSLRLSCTASEHIYDLYIMGWYRQAPGKDRELVATITYTGSIYIADSVKDRFTISRGNAKNTVSLQMSGLKPEDTAVYYCNADPSGLGRKLYWGQGTQVTVSS | 41.8 | 128 | 181 | 133 | 174 | 52.8
3 | PVRIG-A15 (Fc fusion, Alpaca VHH joined to human IgG1 Fc (VHH-hinge-CH2-CH3); not shown: human IgG1 hinge-CH2-CH3) QVQLVESGGGLVQAGGSLRLSCVASGRTFSANTMAWFRQAPGKEREFVAYTRWTDDNTDYASYADFVKGRFTAFRDNTRNTMYLQMNRLRPEDTAVYYCAAATTRGTYYSAGDYNSWGQGTQVTVSS | 129 | 24.8 | 42.7 | 36.3 | 29.1 | 208
4 | PVRIG-A105 (Fc fusion, Alpaca VHH joined to human IgG1 Fc (VHH-hinge-CH2-CH3); not shown: human IgG1 hinge-CH2-CH3) EVQLVESGGGLVQAGGSLRLSCAASGRTFDRHTMTWFRQAPGKEREFVATASRIPGDTYYSHSVKGRFTISRDNAKNTVYLQLNNLKPEDTAVYYCAATSAYCSEVDCYEKGSWYDNWGQGIQVTVSS | 19.2 | 122 | 162 | 123 | 157 | 57.1
5 | PVRIG-A113 (Fc fusion, Alpaca VHH joined to human IgG1 Fc (VHH-hinge-CH2-CH3); not shown: human IgG1 hinge-CH2-CH3) QLQLVESGGGLVQSGGSLRLSCAASGRTRSMYVMGWFRQAPGKEREFVGRIKWSGDTTYTSYADFVKGRFTLYGNQARNTVYLQMNSLKPEDTAVYYCAALPSDYDYRAASYGVDYWGKGTLVTVSS | 44.3 | 38.6 | 57.4 | 42.4 | 52.7 | 92

Continued by falling EC50 [1], values first:

Row | EC50 [1] [pM] | % AUC to COM701-hIgG1 [2] [%] | % AUC to SRF813-hIgG1 [3] [%] | % AUC to COM701-hIgG1 [4] [%] | % AUC to SRF813-hIgG1 [5] [%] | EC50 [6] [pM] | Binder
6 | 93 | 28.7 | 34.4 | 29.3 | 33.8 | 255 | PVRIG-A30 (Fc fusion, Alpaca VHH joined to human IgG1 Fc (VHH-hinge-CH2-CH3); not shown: human IgG1 hinge-CH2-CH3) QVQLVESGGGLVQPGGSLRLSCAASGRTDSMNVMGWFRRAPGKEREFVARIKWNGDTTYTAYADFLKGRFTLYGAVARNRVYLQMNSLQPEDTAVYYCAAGEVSGSSYSPDYGMHYWGKGTLVTVSS
7 | 53.4 | 59.3 | 115 | 89.5 | 69.7 | 196 | PVRIG-A50 (Fc fusion, Alpaca VHH joined to human IgG1 Fc (VHH-hinge-CH2-CH3); not shown: human IgG1 hinge-CH2-CH3) EVQLVESGGGLVQPGGSLRLSCAASGFTFSYYDMSWVRQAPGKGLEWVSTINSNGGRTSYVDSVKGRFTISRDNTKNTLYLQMNSLKPEDTAVYYCVEGDPHNFGLENLSLRDFGSWGQGTQVTVSS
8 | 34.1 | 66.4 | 232 | 153 | 80.4 | 51.4 | PVRIG-A118 (Fc fusion, Alpaca VHH joined to human IgG1 Fc (VHH-hinge-CH2-CH3); not shown: human IgG1 hinge-CH2-CH3) QVQLVESGGGLVQAGGSLRLSCAASETYFDLYVMGWYRQAPGKDRELVATITYTGSIKIVDSVKDRFTISRGDAKNTVSLQMSSLKPEDTAVYFCNADPSGLGRKVYWGQGTQVTVSS
9 | 28.8 | 47.6 | 54.5 | 50.6 | 62.4 | 62.1 | PVRIG-A75 (Fc fusion, Alpaca VHH joined to human IgG1 Fc (VHH-hinge-CH2-CH3); not shown: human IgG1 hinge-CH2-CH3) QLQLVESGGGLVQSGGSLRLSCAASGRTRSMYVMGWFRQAPGKEREFVGRIKWSGDTTYTSYADFVKGRFTLYGNQARNTVYLQMNSLKPEDTAVYSCAASKFPVSGVPEHYDYWGQGTQVTVSS

Reference: US20240343803A1 (SHANDONG SIMCERE BIOPHARMACEUTICAL, published 2024)
